Data: IntAct's records for PubMed 21295698

Key:
ogt1_human OGT [1] = biological target: ogt1_human OGT (UniProt O15294)
ogt1_human OGT [2] = biological target: ogt1_human OGT (UniProt O15294); remark: listed apart in the source

UniProt O15294, sequence (O15294 whole entry): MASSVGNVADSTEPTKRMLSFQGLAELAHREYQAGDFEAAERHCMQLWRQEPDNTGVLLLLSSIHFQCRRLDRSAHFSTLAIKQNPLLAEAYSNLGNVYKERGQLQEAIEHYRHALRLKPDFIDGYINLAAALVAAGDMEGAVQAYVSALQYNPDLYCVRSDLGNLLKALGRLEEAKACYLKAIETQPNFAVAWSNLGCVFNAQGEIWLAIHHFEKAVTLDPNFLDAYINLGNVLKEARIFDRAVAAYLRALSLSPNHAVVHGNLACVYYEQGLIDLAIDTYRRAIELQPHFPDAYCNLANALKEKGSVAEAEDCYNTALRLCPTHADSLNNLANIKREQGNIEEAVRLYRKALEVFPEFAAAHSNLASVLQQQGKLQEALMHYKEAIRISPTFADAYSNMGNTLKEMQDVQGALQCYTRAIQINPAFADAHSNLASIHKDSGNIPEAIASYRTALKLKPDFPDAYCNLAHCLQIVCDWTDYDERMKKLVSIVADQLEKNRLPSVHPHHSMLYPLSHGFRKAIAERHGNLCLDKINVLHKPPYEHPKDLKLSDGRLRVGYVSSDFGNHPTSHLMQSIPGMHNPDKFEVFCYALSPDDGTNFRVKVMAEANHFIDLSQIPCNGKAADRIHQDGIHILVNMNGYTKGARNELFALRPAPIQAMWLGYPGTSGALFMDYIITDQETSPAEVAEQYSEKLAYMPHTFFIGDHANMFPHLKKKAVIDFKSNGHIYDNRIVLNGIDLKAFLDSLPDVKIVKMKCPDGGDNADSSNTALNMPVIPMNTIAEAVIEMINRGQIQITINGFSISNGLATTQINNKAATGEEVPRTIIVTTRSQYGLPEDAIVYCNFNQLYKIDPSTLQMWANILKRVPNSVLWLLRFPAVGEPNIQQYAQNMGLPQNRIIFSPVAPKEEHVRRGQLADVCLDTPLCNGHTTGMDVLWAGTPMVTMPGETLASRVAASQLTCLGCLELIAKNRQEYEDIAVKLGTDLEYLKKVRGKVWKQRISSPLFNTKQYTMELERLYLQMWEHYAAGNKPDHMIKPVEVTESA

| Substance | effect of a mutation on the interaction (ogt1_human OGT [1]) | effect of a mutation on the interaction (ogt1_human OGT [2]) |
| --- | --- | --- |
| Host cell factor 1 (Homo sapiens), P51610 C1075A | decreasing interaction | – |
| Host cell factor 1 (Homo sapiens), P51610 T1090A | disrupting interaction | – |
| Host cell factor 1 (Homo sapiens), P51610 C1080A | decreasing interaction | – |
| Host cell factor 1 (Homo sapiens), P51610 T1082A | decreasing interaction | – |
| Host cell factor 1 (Homo sapiens), P51610 N1077A | decreasing interaction | – |
| Host cell factor 1 (Homo sapiens), P51610 T1088A | disrupting interaction | – |
| Host cell factor 1 (Homo sapiens), P51610 H1083A | decreasing interaction | – |
| Host cell factor 1 (Homo sapiens), P51610 T1092A | disrupting interaction | – |
| Host cell factor 1 (Homo sapiens), P51610 P1078A | decreasing interaction | – |
| Host cell factor 1 (Homo sapiens), P51610 T1085A | decreasing interaction | – |
| Host cell factor 1 (Homo sapiens), P51610 E1081A | disrupting interaction | increasing interaction |
| Host cell factor 1 (Homo sapiens), P51610 P1079A | decreasing interaction | – |
| Host cell factor 1 (Homo sapiens), P51610 T1087A | disrupting interaction | – |
